Measured values taken from patent publication US20140314667A1 (Amgen, published 2014).
“And” between values parts separate entries of the source, which are not always exact repeats. Equal values may be shown once.

Experiments:
[1] = target: T1, EGFRvIII, full length, expressed on cells (human, UniProt P00533 25-1210); assay: cell-based or functional assay
[2] = target: T2, EGFRvIII-Rabbit Fc fusion protein (human; rabbit, UniProt P00533 25-645); assay: ELISA, recombinant antibody supernatant on coated EGFRvIII-RbFc, 1.5 ug/ml
T2 construct: Made in 293F cells; also called EGFRvIII-RbFc; EGFRvIII-Rab Ig Fc fusion protein; not shown: Hinge-CH2-CH3 domain of rabbit IgG (721 bp fragment)
Protocol: The secretion ELISA tests were performed as follows. For Ab secretion, 2 μg/mL of Goat anti-human IgG H+L and for antigen binding, 1.5 μg/ml of EGFRvIII-Rab Ig Fc fusion protein was coated onto Costar Labcoat Universal Binding Polystyrene 96 well plates and held overnight at four degrees. The plates were washed five times with dH₂O. Recombinant antibodies were titrated 1:2 for 7 wells from the undiluted minilipofection supernatant. The plates were washed five times with dH₂O. A goat anti-human IgG Fc-specific HRP-conjugated antibody was added at a final concentration of 1 μg/mL for 1 hour at RT for the secretion plates and binding plates detected with 1 μg/ml Rb anti Hu Fc for 1 hour at room temperature. The plates were washed five times with dH₂O. The plates were developed with the addition of TMB for 30 minutes and the ELISA was stopped by the addition of 1 M phosphoric acid. Each ELISA plate was analyzed to determine the optical density of each well at 450 nm.

[3] = target: T1, EGFRvIII, full length, expressed on …; assay: FACS on NR6 M cells, antibody at 0.25 ug/ml, no glutathione
Protocol: XenoMax derived IgG1 recombinant antibodies were expressed, purified and quantitated as described previously. Antibodies were further assayed for their ability to internalize the EGFRvIII receptor in NR6 M cells. […] The cells were washed with cold 10% FCS in PBS and secondary antibody (SS Alexa antihuman IgG Fab) at 3 μg/ml Fab was added and incubated for 7 mins on ice. The cells were washed with cold 10% FCS in PBS once and then resuspended in cold media. Next, two sets of the triplicate were incubated at 37° C. and the remaining set was incubated at 4° C. for 1 hr. After that the cells incubated at 4° C. and one set of the cells incubated at 37° C. were treated with glutathione (as previously mentioned) for 1 hr on ice. Then the cells were washed and resuspended in 100 μl of cold 1% FCS in PBS and analyzed by FACS. The % internalization was calculated from the geometric mean obtained from the FACS analysis [(mean at 37° C. with glutathione−mean at 4° C. with glutathione)/(mean at 37° C. without glutathione−mean at 4 C with glutathione)].

[4] = target: T1, EGFRvIII, full length, expressed on …; assay: cell-based or functional assay; remark: listed apart in the source

| Binder | IC50 of cell growth inhibition (CellTiter-Glo, U251vIII cells) [1] | Titer, antigen binding [2] | FACS Geometric mean, without glutathione 37 C [3] [geometric mean] | % internalization [4] [%] |
| --- | --- | --- | --- | --- |
| Ab 131-DM1 conjugate (antibody, V domains shown, DM1 linked through SMCC (MCC) to amine groups of the antibody, 3.0-3.5 DM1 molecules per antibody; sites not stated) VH: QVQLVESGGGVVQSGRSLRLSCAASGFTFRNYGMHWVRQAPGKGLEWVAVIWYDGSDKYYADSVRGRFTISRDNSKNTLYLQMNSLRAEDTAVYYCARDGYDILTGNPRDFDYWGQGTLVTVSS VL: DTVMTQTPLSSHVTLGQPASISCRSSQSLVHSDGNTYLSWLQQRPGQPPRLLIYRISRRFSGVPDRFSGSGAGTDFTLEISRVEAEDVGVYYCMQSTHVPRTFGQGTKVEIK | 0.068 nM DM1 equivalents and 3 ng/mL | – | – | – |
| anti-EGFRvIII antibody 131 (antibody, human IgG1, V domains shown, Recombinant human IgG1 kappa; also called sc131) VH: QVQLVESGGGVVQSGRSLRLSCAASGFTFRNYGMHWVRQAPGKGLEWVAVIWYDGSDKYYADSVRGRFTISRDNSKNTLYLQMNSLRAEDTAVYYCARDGYDILTGNPRDFDYWGQGTLVTVSS VL: DTVMTQTPLSSHVTLGQPASISCRSSQSLVHSDGNTYLSWLQQRPGQPPRLLIYRISRRFSGVPDRFSGSGAGTDFTLEISRVEAEDVGVYYCMQSTHVPRTFGQGTKVEIK | – | > 64 titer (1:x dilution of supernatant) | – | – |
| SC-EGFRvIII-XG1-318 (antibody, IgG1, V domains shown, Recombinant IgG1 kappa; also called mAb ID 141A10) VH: QVQLVESGGGVVQPGRSLRLSCVASGFTLSSYGMHWVRQAPGKGLEWVAVTSYDGSKKDYADSVKGRFTISRDNSKNTLYLQMNSLRAEDTAVYYCVSEGYCDSSSCYKYYYYGMDVWGQGTTVTVSS VL: DIVMTQSPLSLPVTPGEPASISCRSSQSLLYRNGNNYLDWYLQRPGQSPQLLIYLGSNRASGVPDRFSGSGSGTDFTLKISRVEAEDVGVYYCMQALQTPRTFGQGTKVEIK | – | 64 titer (1:x dilution of supernatant) | – | – |
| SC-EGFRvIII-XG1-333 (antibody, IgG1, V domains shown, Recombinant IgG1 kappa; also called mAb ID 132D8) VH: QVQLVESGGGVVQPGRSLRLSCVASGFTLSSYGMHWVRQALGKGLEWVAVTSYDGSKKDYADSVKGRFTISRDNSKNTLYLQMNSLRAEDTAVYYCVSEGYCDSTSCYKYYYYGMDVWGQGTTVTVSS VL: DIVMTQSPLSLPVTPGEPASISCRSSQSLLYRNGNNYLDWYLQRPGQSPQLLIYLGSNRASGVPDRFSGSGSGTDFTLKISRVEAEDVGVYYCMQALQTPRTFGQGTKVEIK | – | > 64 titer (1:x dilution of supernatant) | – | – |
| SC-EGFRvIII-XG1-342 (antibody, IgG1, V domains shown, Recombinant IgG1 kappa; also called mAb ID 124D4) VH: QVQLVESGGGVVQPGRSLRLSCVASGFTLSSYGMHWVRQAPGKGLEWVAVTSYDGSKKDYADSVKGRFTISRDNSKNTLYLQMNSLRAEDTAVYYCVSEGYCDSTSCYKYYYYGMDVWGQGTTVTVSS VL: DIVMTQSPLSLPVTPGEPASISCRSSQSLLYRNGNNYLDWYLQRPGQSPQLLIYLGSNRASGVPDRFSGSGSGTDFTLKISRVEAEDVGVYYCMQALQTPRTFGQGTKVEIK | – | > 64 titer (1:x dilution of supernatant) | – | – |
| SC-EGFRvIII-XG1-211 (antibody, IgG1, V domains shown, Recombinant IgG1 kappa; also called sc211; SC211) VH: QVQLVESGGGVVQPGRSLRLSCVASGFTLSSYGMHWVRQAPGKGLEWVAVTSYDGSKKDYADSAKGRFTISRDNSKNTLYLQMNSLRAEDTAVYYCVSEGYCSSSSCYKYYYYGMDVWGQGTTVTVSS VL: DIVMTQSPLSLPVTPGEPASISCRSSQSLLYRNGNNYLDWYLQRPGQSPQLLIYLGSNRASGVPDRFSGSGSGTDFTLKISRVEAEDVGVYYCMQALQTPRTFGQGTKVEIK | – | > 64 titer (1:x dilution of supernatant) | 20.8 | 21.6 |
| SC-EGFRvIII-XG1-123/124 (antibody, IgG1, V domains shown, Recombinant IgG1 kappa; also called mAb ID 129A7) VH: QVQLVESGGGVVQPGRSLRLSCAASGFTLSSYGMHWVRQAPGKGLEWVAVMSYDGSKEDYADSVKGRFTISRDNSENTLYLQMNSLRAEDTAVYYCVSEGYCSSRSCYKYYYYGMDVWGQGTTVTVSS VL: DIVMTQSPLSLPVTPGEPASISCRSSQSLLYRNGNNYLDWYLQKPGQSPQLLIYLGSNRASGVPDRFSGSGSGTDFTLNISRVEAEDVGHYYCMQALQTPRTFGQGTKVEIK | – | > 64 titer (1:x dilution of supernatant) | – | – |
| SC-EGFRvIII-XG2-170 (antibody, IgG1, V domains shown, kappa light chain; also called sc170; SC170) VH: QVQLQQSGPGLVKPSQTLSLTCAISGDSVSSNNAAWNWIRQSPARGLEWLGRTYYRSKWYNDYVVSVKSRITINPDTSKNQFSLQLNSVTPEDTAVYYCVRATAFDYWGQGTLVTVSS VL: AIVLTQTPLSSPVTLGQPASISCRSSQSLVHRDGNTYLSWLQQRPGQPPRLLIYKISNRFSGVPDRFSGSGAGTDFTLKISRVEPDDVGVYYCMHTTQLPWTFGQGTKVEIK | – | > 64 titer (1:x dilution of supernatant) | 20 | 20.1 |
| SC-EGFRvIII-XG1-139 (antibody, IgG1, V domains shown, Recombinant IgG1 kappa; also called sc139; SC139) VH: EVQVLESGGGLVQPGGSLRLSCAASGFTFSSYAMSWVRQAPGKGLEWVSAISGSGGSTNYADSVKGRFTISRDNSKNTLYLQMNSLRAEDTAVYYCAGSSGWSEYWGQGTLVTVSS VL: DIQMTQSPSSLSASVGDRVTITCRASQGIRNNLAWYQQKPGKAPKRLIYAASNLQSGVPSRFTGSGSGTEFTLIVSSLQPEDFATYYCLQHHSYPLTSGGGTKVEIK | – | > 64 titer (1:x dilution of supernatant) | 22.6 | 80.8 |
| SC-EGFRvIII-XG1-250 (antibody, IgG1, V domains shown, Recombinant IgG1 kappa; also called sc250; SC250) VH: EGQLLESGGGWVQPGESLRLSCAASGFTFSSYAMSWVRQAPGKGLEWVSAISGSGGSTNYADSVKGRFTISRDNSKNTLYLQVNSLRVEDTAVYYCAGSSGWSEYWGQGTLVTVSS VL: DIQMTQSPSSLSASVGDSVTITCRTSQGIRKNLGWYQQKPGKAPKRLIYAASSLQSGVPSRFSGSGSGTEFTLTISRLQPEDFATYYCLQHHSYPLTFGGGTRVEIR | – | > 64 titer (1:x dilution of supernatant) | 24.1 | 16.7 |
| antibody 095 (antibody, IgG1, V domains shown, Recombinant IgG1 kappa; also called sc95; SC95) VH: QVQLQESGPFLVKPSQTLSLTCTVSGGSISSGGYYWSWIRQHPGKGLEWIGFIYYRGNTYYNPSLKSRVTISVDTSKNQFSLKLSSVTAADTAVYYCARDGYCSRTGCYGGWFDPWGQGTLVTVSP VL: DIVMTQTPLSSPVTLGQPASISCRSSQSLIHTDGNIYLSWLQQRPGQPPRLLIYKISNRFSGVPDRFSGSGAGTDFTLKISRVEAEDVGVYYCMQGTQFPITFGQGTRLEIK | – | – | 22.6 | 72.4 |
| SC-EGFRvIII-XG2-150 (antibody, IgG1, V domains shown, kappa light chain; also called sc150; SC150) VH: QVQLQQSGPGLVKPSQTLSLTCAISGDSVSSYSSAWNWIRQSPSRGLEWLGRAYHRSRWYYEYAVSVKSRINITPDTSKNQFSLQLNSVTPEDTAVYYCARGSRFDYWGQGTLVTVSS VL: DIVMTQTPLSSPVTLGQPASISCRSSQSLVHRDGNTYLSWLQQRPGQPPRLLIYKISNRFSGVPDRFSGSGAGTDFTLKISRVEAEDVGIYFCMHTTQFPWTFGQGTRVEIK | – | > 64 titer (1:x dilution of supernatant) | 20.3 | 20 |
| antibody 13.1.2 (antibody, V domains shown) VH: QVQLVESGGGVVQPGRSLRLSCAASGFTFSSYGMHWVRQAPGKGLEWVAVIWYDGSNKYYVDSVKGRFTISRDNSKNTLYLQMNSLRAEDTAVYYCARDGWQQLAPFDYWGQGTLVTVSS VL: not shown | – | – | 22.1 | 82.5 |
